Test results from PMC2782133, “Interaction of HP1 and Brg1/Brm with the Globular Domain of Histone H3 Is Required for HP1-Mediated Repression” (PLoS Genetics, 2009).

B1: rH3(44–66), B10/6xHIS-tagged (domain or fragment, UniProt P68431 45-67, looked up)
chain: GTVALREIRRYQKSTELLIRKLP
notes: histone H3 aa 44-66, recombinant; also called histone H3 aa 44 to 66
B2: rH3(35–66), B10/6xHIS-tagged (domain or fragment)
chain: not shown
notes: histone H3 aa 35-66 (V35 to P66), recombinant; also called Shadock; histone H3 aa 35 to 66
B3: rH3(35–66)V46A, B10/6xHIS-tagged (domain or fragment)
chain: not shown
notes: histone H3 aa 35-66 with the valine of the PXXVXL motif mutated; also called mutant B10-tagged fragment of histone H3 (aa 35 to 66)

Columns and labels:
[1] = target: T1, GST-HP1γ (human, UniProt Q13185 1-183); assay: pull-down; GST fusion proteins bound to agarose beads incubated with purified histones, recombinant B10-tagged H3 constructs or purified Brg1-flag; ELB buffer (50mM HEPES pH 7, 250mM NaCl, 1mM EDTA, 0.1% NP40); elution with 20mM glutathione; western blot (anti-H3, anti-B10 or anti-Brg1); settings: both partners purified
T1 construct: HP1γ

[2] = target: T2, GST-HP1α (human, UniProt P45973 1-191); assay: as above; settings: both partners purified
T2 construct: HP1α, human; also called HP1α-derived GST-fusion protein
T2 sequence (P45973 whole entry, the tested form may be a part): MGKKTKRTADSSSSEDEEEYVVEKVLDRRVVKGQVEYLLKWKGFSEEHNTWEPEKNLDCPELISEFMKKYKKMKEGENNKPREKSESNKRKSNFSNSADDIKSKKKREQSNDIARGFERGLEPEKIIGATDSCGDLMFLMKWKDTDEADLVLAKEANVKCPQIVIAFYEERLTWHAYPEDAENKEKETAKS

T1 sequence (Q13185 whole entry, the tested form may be a part): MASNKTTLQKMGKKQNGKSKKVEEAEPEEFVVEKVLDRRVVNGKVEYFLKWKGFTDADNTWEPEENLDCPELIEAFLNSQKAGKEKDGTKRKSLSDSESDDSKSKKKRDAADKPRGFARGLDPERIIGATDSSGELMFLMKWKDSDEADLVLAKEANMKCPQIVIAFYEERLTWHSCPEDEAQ

| Binder | binding result [1] | fold excess of HP1α over Brg1 needed for similar binding [2] [fold] |
| --- | --- | --- |
| B1 | binds |  |
| B2 | binds | ~50 |
| B3 | binds |  |
